T1: KstD2 (Rhodococcus ruber, UniProt I0B6I6)
T1 sequence (I0B6I6 1-564): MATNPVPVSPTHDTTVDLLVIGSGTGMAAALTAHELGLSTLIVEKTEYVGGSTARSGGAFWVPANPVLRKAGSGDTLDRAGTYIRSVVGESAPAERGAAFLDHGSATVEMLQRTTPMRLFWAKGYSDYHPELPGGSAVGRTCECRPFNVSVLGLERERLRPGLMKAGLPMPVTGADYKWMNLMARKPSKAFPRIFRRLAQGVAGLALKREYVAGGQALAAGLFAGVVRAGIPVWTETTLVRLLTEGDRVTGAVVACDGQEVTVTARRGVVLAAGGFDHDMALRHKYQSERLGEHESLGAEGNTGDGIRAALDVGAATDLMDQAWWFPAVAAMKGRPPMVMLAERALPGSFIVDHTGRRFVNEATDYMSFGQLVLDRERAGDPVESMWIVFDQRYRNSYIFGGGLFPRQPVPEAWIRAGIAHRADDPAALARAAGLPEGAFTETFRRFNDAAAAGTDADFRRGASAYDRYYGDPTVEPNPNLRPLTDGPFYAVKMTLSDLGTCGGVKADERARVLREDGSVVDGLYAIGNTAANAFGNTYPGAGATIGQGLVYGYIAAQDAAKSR

T2: KstD1 (Rhodococcus ruber, UniProt I0B6J0)
T2 sequence (I0B6J0 1-511): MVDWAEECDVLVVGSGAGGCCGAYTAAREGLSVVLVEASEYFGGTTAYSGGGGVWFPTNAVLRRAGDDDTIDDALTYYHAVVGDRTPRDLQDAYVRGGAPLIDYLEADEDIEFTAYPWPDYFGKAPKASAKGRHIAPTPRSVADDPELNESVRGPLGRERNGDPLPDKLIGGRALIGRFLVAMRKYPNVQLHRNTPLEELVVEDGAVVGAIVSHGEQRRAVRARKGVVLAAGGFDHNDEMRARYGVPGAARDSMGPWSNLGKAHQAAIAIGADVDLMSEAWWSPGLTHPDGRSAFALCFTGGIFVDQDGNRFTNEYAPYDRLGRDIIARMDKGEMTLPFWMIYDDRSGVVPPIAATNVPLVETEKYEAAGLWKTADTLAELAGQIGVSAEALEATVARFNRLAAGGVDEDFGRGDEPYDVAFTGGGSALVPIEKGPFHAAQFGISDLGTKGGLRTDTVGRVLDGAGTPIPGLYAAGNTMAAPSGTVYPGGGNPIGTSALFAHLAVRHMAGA


Legend:
[1] = target: T1, KstD2; assay: DCPIP reduction at […] nm, cell-free extract, Michaelis-Menten fit; settings: read-out: KstD2 / Km; 80 µM DCPIP as electron acceptor, 50 mM Tris pH 7, 30 °C
[2] = target: T2, KstD1; assay: as above; settings: read-out: KstD1 / Km; 80 µM DCPIP as electron acceptor, 50 mM Tris pH 7, 30 °C
[3] = substrate: [H][C@@]12CCC3=CC(=O)CC[C@]3(CO)[C@@]1([H])CC[C@]1(C)C(=O)CC[C@@]21[H]; assay: cells, lysate or membranes; settings: pH 7.0; 30.0 °C
[4] = substrate: C[C@]12CC[C@H]3[C@@H](CCC4=CC(=O)CC[C@@]43C)[C@@H]1CC[C@@H]2C(=O)CO; assay: cells, lysate or membranes; settings: 80 µM DCPIP as electron acceptor, 50 mM Tris pH 7, 30 °C
[5] = substrate: C[C@]12CC[C@H]3[C@@H](CCC4=CC(=O)CC[C@@]43C)[C@@H]1CC[C@@H]2O; assay: cells, lysate or membranes; settings: pH 7.0; 30.0 °C
[6] = substrate: C[C@H](C(=O)O)[C@H]1CC[C@H]2[C@@H]3CCC4=CC(=O)CC[C@]4(C)[C@H]3CC[C@]12C; assay: cells, lysate or membranes; settings: 80 µM DCPIP as electron acceptor, 50 mM Tris pH 7, 30 °C
[7] = substrate: CC(=O)[C@H]1CC[C@H]2[C@@H]3CCC4=CC(=O)CC[C@]4(C)[C@H]3CC[C@]12C; assay: cells, lysate or membranes; settings: 80 µM DCPIP as electron acceptor, 50 mM Tris pH 7, 30 °C
[8] = substrate: C[C@]12C[C@H](O)[C@H]3[C@@H](CCC4=CC(=O)CC[C@@]43C)[C@@H]1CC[C@@H]2C(=O)CO; assay: cells, lysate or membranes; settings: 80 µM DCPIP as electron acceptor, 50 mM Tris pH 7, 30 °C
[9] = substrate: C[C@]12CCC(=O)C=C1CC[C@@H]1[C@@H]2CC[C@]2(C)C(=O)CC[C@@H]12; assay: cells, lysate or membranes; settings: pH 7.0; 30.0 °C
[10] = substrate: C[C@]12CCC(=O)C[C@@H]1CC[C@@H]1[C@@H]2CC[C@]2(C)[C@@H](O)CC[C@@H]12; assay: cells, lysate or membranes

| Molecule | Km [1] [µM] | Km [2] [µM] | Km [3] [µM] | Km [4] [µM] | Km [5] [µM] | Km [6] [µM] | Km [7] [µM] | Km [8] [µM] | Km [9] [µM] | Km ([10]; 80 µM DCPIP as electron acceptor, 50 mM Tris pH 7, 30 °C) [µM] | Km ([10]; pH 7.0, 30.0 °C) [µM] |
| --- | --- | --- | --- | --- | --- | --- | --- | --- | --- | --- | --- |
| C[C@]12CCC(=O)C=C1CC[C@H]1[C@@H]3CCC(=O)[C@@]3(C)CC[C@@]12O [9OHAD, 9α-hydroxy-4-androstene-3,17-dione] | 543 ± 77.8 | 22.1 ± 7 |  |  |  |  |  |  |  |  |  |
| KstD1 (Rhodococcus ruber) (protein) MVDWAEECDVLVVGSGAGGCCGAYTAAREGLSVVLVEASEYFGGTTAYSGGGGVWFPTNAVLRRAGDDDTIDDALTYYHAVVGDRTPRDLQDAYVRGGAPLIDYLEADEDIEFTAYPWPDYFGKAPKASAKGRHIAPTPRSVADDPELNESVRGPLGRERNGDPLPDKLIGGRALIGRFLVAMRKYPNVQLHRNTPLEELVVEDGAVVGAIVSHGEQRRAVRARKGVVLAAGGFDHNDEMRARYGVPGAARDSMGPWSNLGKAHQAAIAIGADVDLMSEAWWSPGLTHPDGRSAFALCFTGGIFVDQDGNRFTNEYAPYDRLGRDIIARMDKGEMTLPFWMIYDDRSGVVPPIAATNVPLVETEKYEAAGLWKTADTLAELAGQIGVSAEALEATVARFNRLAAGGVDEDFGRGDEPYDVAFTGGGSALVPIEKGPFHAAQFGISDLGTKGGLRTDTVGRVLDGAGTPIPGLYAAGNTMAAPSGTVYPGGGNPIGTSALFAHLAVRHMAGA |  |  | 368.8 ± 102.4 | 21.6 ± 4.5 | 28.8 ± 7.4 | 76.1 ± 15.7 | 27.9 ± 9.5 | 161.6 ± 7.6 | 34.2 ± 3.8 |  |  |
| KstD3 (Rhodococcus ruber) (protein) MIKQEYDIVVVGSGAGGMTAALTAAHRGASVVLVEKAPHYGGSSARSGGGVWIPNNEVLGAAGVTDTPEAARTYLHSIIGDVVPAGKIDTYIDRGPEMLSFVLEHSALELQWVPGYSDYYPEAPGGRLGGRSVEPKPFDGKRLGDDLALLEPDYVKGPPNFVITQADYKWLNLLMRNPRGPVRAAKVGVRYLWARARRRHLLVRGQALMAGLRMGLRDAGVPLLLNTALTDLVVEDGVVRGVRVESDGQQRTVRARRGVVIASGGFEHNEQMRTQYQRAPIGTEWTVGAKANTGDGIRAGQSLGAAVDFMDDAWWGPSFPLTGGPWFALSERSLPGSMMVNAAGRRFVNESAPYVEAVHAMYGGRHGRGDGPGENIPCWMILDQRYRNRYTFAGITPRSPFPKRWLKAGVVVRAGSIAELAGKIGVPAAALTATVERFNGFARAGRDEDFGRGESGYDHYYGDPRNKPNPSLGVIDKAPFYAIKVVPGDLGTKGGLRTDADARVLREDGTVIEGLYAAGNASGPVMGHTYAGPGATIGPAMTFAYLAVLDALARPEQPAVPPVSETVEQH |  |  |  | 111.3 ± 4.0 |  |  | 43.6 ± 2.9 |  |  | 181.1 ± 42.6 |  |
| KstD2 (Rhodococcus ruber) (protein) MATNPVPVSPTHDTTVDLLVIGSGTGMAAALTAHELGLSTLIVEKTEYVGGSTARSGGAFWVPANPVLRKAGSGDTLDRAGTYIRSVVGESAPAERGAAFLDHGSATVEMLQRTTPMRLFWAKGYSDYHPELPGGSAVGRTCECRPFNVSVLGLERERLRPGLMKAGLPMPVTGADYKWMNLMARKPSKAFPRIFRRLAQGVAGLALKREYVAGGQALAAGLFAGVVRAGIPVWTETTLVRLLTEGDRVTGAVVACDGQEVTVTARRGVVLAAGGFDHDMALRHKYQSERLGEHESLGAEGNTGDGIRAALDVGAATDLMDQAWWFPAVAAMKGRPPMVMLAERALPGSFIVDHTGRRFVNEATDYMSFGQLVLDRERAGDPVESMWIVFDQRYRNSYIFGGGLFPRQPVPEAWIRAGIAHRADDPAALARAAGLPEGAFTETFRRFNDAAAAGTDADFRRGASAYDRYYGDPTVEPNPNLRPLTDGPFYAVKMTLSDLGTCGGVKADERARVLREDGSVVDGLYAIGNTAANAFGNTYPGAGATIGQGLVYGYIAAQDAAKSR |  |  | 347.4 ± 41.7 | 42.5 ± 5.8 | 107.9 ± 18.5 | 38.2 ± 6.6 | 33.8 ± 4.9 | 374.3 ± 74.5 | 40.1 ± 8.7 |  | 24.57 ± 7.8 |

Source: paper PMC5348764, “Functional differentiation of 3-ketosteroid Δ^1-dehydrogenase isozymes in Rhodococcus ruber strain Chol-4” (Microbial Cell Factories, 2017)
